pKd: −log10 of the molar value.
Target: RepΔC33 (Rep lacking the C-terminal 33 residues) (E. coli) (UniProt P09980)
Assay: not stated; apparent KD (equilibrium dissociation constant), Figure S5; the method is not told in the text shown (SPR is the only quantitative binding method that the paper names)

Work on “E. coli replicative helicase DnaB, purified (from UniProt P0ACB0 1-471) (enzyme)” yielded a pKd of 5.77.

— article PMC2807033
